Source: patent US20070014720A1

What was measured:
human CD20 (human) [1] = biological target: human CD20 (human) (UniProt P11836); assay: FACS KD on SB cells expressing CD20 (GMF against mAb concentration, nonlinear fit)
human CD20 (human) [2] = biological target: human CD20 (human) (UniProt P11836); assay: cell-based or functional assay

Sequence of human CD20 (human) (P11836 whole entry): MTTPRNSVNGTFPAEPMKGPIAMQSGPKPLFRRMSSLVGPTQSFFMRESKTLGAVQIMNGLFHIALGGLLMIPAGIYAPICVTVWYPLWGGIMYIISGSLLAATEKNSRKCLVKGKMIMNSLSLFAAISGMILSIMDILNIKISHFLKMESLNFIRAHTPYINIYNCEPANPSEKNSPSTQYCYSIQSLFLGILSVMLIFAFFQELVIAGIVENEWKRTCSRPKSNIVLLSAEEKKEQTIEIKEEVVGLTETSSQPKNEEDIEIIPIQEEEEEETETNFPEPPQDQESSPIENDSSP

Kd (human CD20 (human) [1]) | % Lysis Daudi 0.001 µg/ml ADCC (human CD20 (human) [2]) | % Lysis Daudi 1 µg/ml ADCC (human CD20 (human) [2]) | % Lysis Raji 0.001 µg/ml ADCC (human CD20 (human) [2]) | % Lysis Raji 1 µg/ml ADCC (human CD20 (human) [2]) | % Lysis Ramos 0.001 µg/ml ADCC (human CD20 (human) [2]) | % Lysis Ramos 1 µg/ml ADCC (human CD20 (human) [2]) | EC50 µg/ml Daudi CDC (human CD20 (human) [2]) | EC50 µg/ml Raji CDC (human CD20 (human) [2]) | EC50 µg/ml Ramos Apoptosis Alamar Blue (human CD20 (human) [2]) | EC50 µg/ml Ramos Apoptosis Annexin V (human CD20 (human) [2]) | EC50 µg/ml Ramos Apoptosis Cell Titer Glo (human CD20 (human) [2]) | EC50 µg/ml Ramos Apoptosis WST-1 (human CD20 (human) [2]) | EC50 µg/ml Ramos CDC (human CD20 (human) [2]) | Substance
34.1 nM |  |  |  |  |  |  |  |  |  |  |  |  |  | B1 antibody (Beckman Coulter, Miami, Fla.)
8.1 nM | 33% | 95% | 16% | 62% | 5% | 78% | 1.56 µg/mL | 0.31 µg/mL | 0.222 µg/mL | 2.59 µg/mL | 0.576 µg/mL | 0.0326 µg/mL | 0.43 µg/mL | Rituxan (Rituximab, Genentech Inc.) (antibody)
